For three substances, binding of M. hyopneumoniae cells to factor H immobilised on 96-well plates (qPCR count) after preincubation with anti-EF-Tu polyclonal antibodies against preimmune serum, C3 fragment deposition on M. hyopneumoniae cells by flow cytometry, anti-EF-Tu antibodies against preimmune sera, with factor H and Kd results are on record in publication PMC7549910.

The target of test [1] is human factor H (human) (UniProt P08603).
For test [2], the target named is elongation factor Tu (EF-Tu) of M. hyopneumoniae strain 168, endogenous (M. hyopneumoniae (endogenous in strain 168)).
The target in test [3] is human factor H (human) (UniProt P08603). The test can be described thus: SPR; BIAcore X100 Plus; factor H amine-coupled to a CM5 chip (712 RU); recombinant EF-Tu 0-14 uM as analyte in HBS-EP (10 mM HEPES, 150 mM NaCl, 3 mM EDTA, 0.05% P20), 30 uL/min, 180 s, 20°C. For orientation: SPR reads the build-up and loss of mass on a sensor chip optically.

human factor H (human), sequence (P08603 19-1231): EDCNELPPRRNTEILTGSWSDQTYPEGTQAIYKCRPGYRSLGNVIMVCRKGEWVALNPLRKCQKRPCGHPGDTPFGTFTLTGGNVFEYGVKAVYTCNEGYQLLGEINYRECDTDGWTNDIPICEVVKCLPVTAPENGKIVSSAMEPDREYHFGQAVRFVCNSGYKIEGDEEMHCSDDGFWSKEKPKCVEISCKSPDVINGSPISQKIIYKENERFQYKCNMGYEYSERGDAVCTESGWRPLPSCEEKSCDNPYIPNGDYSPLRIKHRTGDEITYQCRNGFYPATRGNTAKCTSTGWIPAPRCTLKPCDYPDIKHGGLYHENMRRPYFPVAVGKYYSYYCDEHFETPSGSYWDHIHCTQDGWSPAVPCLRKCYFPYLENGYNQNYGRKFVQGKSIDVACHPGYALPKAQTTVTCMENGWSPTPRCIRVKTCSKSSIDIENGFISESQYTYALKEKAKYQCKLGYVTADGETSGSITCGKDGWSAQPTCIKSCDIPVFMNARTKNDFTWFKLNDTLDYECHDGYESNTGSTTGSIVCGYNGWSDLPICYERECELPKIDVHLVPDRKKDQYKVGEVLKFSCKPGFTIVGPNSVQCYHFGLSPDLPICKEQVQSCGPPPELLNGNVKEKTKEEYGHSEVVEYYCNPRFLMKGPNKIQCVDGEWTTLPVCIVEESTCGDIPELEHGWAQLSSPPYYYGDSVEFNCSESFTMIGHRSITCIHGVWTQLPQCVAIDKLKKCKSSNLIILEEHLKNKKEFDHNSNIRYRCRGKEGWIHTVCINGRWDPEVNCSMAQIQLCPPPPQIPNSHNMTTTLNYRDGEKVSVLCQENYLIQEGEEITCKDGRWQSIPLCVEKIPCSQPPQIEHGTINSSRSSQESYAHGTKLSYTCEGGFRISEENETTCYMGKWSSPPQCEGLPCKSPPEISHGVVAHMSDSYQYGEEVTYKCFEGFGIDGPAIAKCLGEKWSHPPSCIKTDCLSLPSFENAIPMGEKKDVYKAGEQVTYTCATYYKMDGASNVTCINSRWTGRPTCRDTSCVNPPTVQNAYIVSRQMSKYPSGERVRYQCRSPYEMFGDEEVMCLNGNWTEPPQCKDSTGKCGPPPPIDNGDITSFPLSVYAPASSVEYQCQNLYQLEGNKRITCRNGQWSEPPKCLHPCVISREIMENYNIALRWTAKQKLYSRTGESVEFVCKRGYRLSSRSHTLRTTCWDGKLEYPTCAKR
elongation factor Tu (EF-Tu) of M. hyopneumoniae strain 168, endogenous (natural protein), sequence (Q4A7K0 whole entry): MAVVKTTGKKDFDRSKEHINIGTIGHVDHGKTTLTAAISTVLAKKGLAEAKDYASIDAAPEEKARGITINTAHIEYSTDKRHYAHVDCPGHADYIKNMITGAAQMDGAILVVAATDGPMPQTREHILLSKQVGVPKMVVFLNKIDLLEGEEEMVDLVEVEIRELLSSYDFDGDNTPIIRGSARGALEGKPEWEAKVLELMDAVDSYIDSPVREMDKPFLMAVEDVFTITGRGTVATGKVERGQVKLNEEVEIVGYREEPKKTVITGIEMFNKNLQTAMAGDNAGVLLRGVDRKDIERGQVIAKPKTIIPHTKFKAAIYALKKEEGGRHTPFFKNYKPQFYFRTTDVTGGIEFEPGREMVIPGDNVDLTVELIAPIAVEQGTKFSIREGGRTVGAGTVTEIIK
recombinant full-length EF-Tu of M. hyopneumoniae, sequence (Q4A7K0 whole entry): as above
elongation factor Tu (EF-Tu) of M. hyopneumoniae strain 168, endogenous (M. hyopneumoniae (endogenous in strain 168)), sequence (Q4A7K0 whole entry): as above
human factor H, sequence (P08603 19-1231): as the sequence (P08603 19-1231) above

On to “elongation factor Tu (EF-Tu) of M. hyopneumoniae strain 168, endogenous (natural protein)”, for which the binding of M. hyopneumoniae cells to factor H immobilised on 96-well plates (qPCR count) after preincubation with anti-EF-Tu polyclonal antibodies against preimmune serum with human factor H (human) [1] was 47.7%. “human factor H (from UniProt P08603 19-1231) (natural protein)” gave a C3 fragment deposition on M. hyopneumoniae cells by flow cytometry, anti-EF-Tu antibodies against preimmune sera, with factor H in test [2] of 8 fold. For the substance “recombinant full-length EF-Tu of M. hyopneumoniae (from UniProt Q4A7K0 1-402) (natural protein; other documents disagree on this pair)”, the Kd (in general, the concentration at which binding is half-saturated) in the test with human factor H (human) [3] was 7.83 µM.
